From patent US6093692A, “Method and compositions for lipidization of hydrophilic molecules” (The University of Southern California, priority 1997, dated 2000)

How the values were obtained:
[1] = set-up: species or system CF-1 mice; settings: mouse, in vivo, iv, 3 mg/kg
Experimental: Female CF-1 mice, […], weighing 20-25 g each, with free access to food and water prior to the experiments, were used for the animal experiments. ^125 I-BBI (3 mg/kg), as native-BBI or as BBIssPal or BBIssOleic conjugate, was administered to the animals via the tail vein. At 0.5, 3, and 24 hr post-injection, 3 animals from each experiment group were sacrificed and their blood (200 μl), the kidneys, the lungs, and the liver were removed, rinsed in ice-cold PBS, and assayed for accumulated radioactivity. The weights of the organs were recorded and used to adjust the concentration of the conjugates in the organs.

C3H 10T1/2 cells = assay: Plating efficiency; assay type: cell-based
Experimental: The plating efficiency (PE) of the cells was also studied in conjunction with each of the transformation assays. To determine the PE of the cells in the different treatment groups, cells (200 cells/dish) were seeded into three 60-mm petri dishes per experiment group and treated in the identical manner as the transformation assay cells. The cells in these assays were terminated at 10 days, fixed with 100% methanol, and stained with giemsa; the colonies of 50 cells or more visible under a microscope were then counted. The plating efficiency is defined as the (number of colonies/number of cells seeded)×100%.

[2] = test system: C3H 10T1/2(clone 8) cells; assay: In vitro transformation assay (MCA-induced); assay type: cell-based
Experimental: Transformation assays were carried out using C3H 10T1/2(clone 8) cells according to the published recommendations [Reznikoff, C. A., et al., Cancer. Res., 33:3239-3249 (1973); Reznikoff, C. A., et al., Cancer. Res., 33:3231-3238 (1973)]. Stock cultures of mycoplasma-free cells were maintained by passing 50,000 cells per 75 cm^2 flask every seven days. Using this schedule, the cells were always passed approximately 2 days before reaching confluence. The stock culture was grown in Eagle's basal medium supplemented with 10% FBS, penicillin (100 units), and streptomycin (100 μg) and used for the transformation assays at passages of 9 to 14. The cells were passed by treating the stock cells with trypsin (0.1%) in PBS for 5 min and quenching the trypsin with 5 ml of the medium. This procedure was adapted to minimize spontaneous transformation in the stock cultures and maximize the plating efficiency in the petri dishes. The FBS stock used in the cultures was pre-screened to ensure that the serum was able to support the expression and the growth of the transformed cells.
For the transformation assays, C3H 10T1/2 cells (1000/dish) were seeded into 60 mm petri dishes and allowed to grow in a humidified 5% CO2 atmosphere in Eagle's basal medium, supplemented with 10% FBS, penicillin (100 units), and streptomycin (100 μg), for 24 hr. Subsequently, the cells were initiated by treatment with 25 μl of the 3-methylcholanthrene (MCA) in acetone stock solution ([…]) to a final concentration of 1 μg/ml of MCA (5 μg/5 ml). The cells were allowed to grow in the presence of the carcinogen or solvent for 24 hr, and the medium in each dish was then replaced with fresh medium containing no carcinogen or solvent. The medium in the dishes was replaced twice per week for the first two weeks of the assay, and thereafter once a week for the remainder four weeks of the assay. In the experiments designed to determine the transformation inhibitory activity of the conjugates, the cells were maintained in the medium containing the conjugates (1 μg/ml) for the first three weeks of the assay; thereafter, the cells were maintained in medium containing no added conjugates.
Six weeks after the carcinogen treatment, the cells were inspected under a microscope for adherence to the culture dishes and were washed with PBS and then fixed in 100% methanol. The fixed monolayers were then stained with Giemsa stain. Twenty dishes per group were treated in each experiment. In addition to the test groups, all the transformation assays contained at least three other groups: negative control (not treated with carcinogen or solvent), acetone control (treated with 25 μl of acetone), and positive control [treated with MCA (1 μg/ml) in 25 μl of acetone]. The transformed foci (>3 mm in diameter) in the plates were studied under a microscope and classified according to published guidelines as types I, II, or III [Landolph, J. R., Transfomatin assay of established cell lines: Mechanism and Application (ed. Kakunaga, T., and Yamasaki, H.) IARC Scientific Publications, Lyon, France pp. 185-201 (1985)]. Briefly, type III foci were dense, multilayered, basophilic, areas of cell growth which stained to a deep blue color with Giemsa and had rough crisscrossed edges. Type II foci were also dense, multilayered, areas of cell growth, but were stained to a purple color with Giemsa and had smoother, more defined edges compared to Type III foci. Type I foci were not scored in the assay.
BBI, either as the free protein or in conjugated form to palmitic or oleic acid, was added to the cultures at 1.0 μg/ml for the first three weeks of the transformation assay period starting immediately after the MCA treatment. MCA-treated cells were exposed to 3-methylcholanthrene, dissolved in 25 μl of acetone, at a concentration of 1 μg/ml for 24 hr. Acetone-treated cells were exposed to 25 μl of acetone for 24 hr only. […]

[3] = MCA 1 μg/ml 24 hr, conjugates 1.0 μg/ml first three weeks, scored at six weeks

B1: BBIssPal: the palmityl disulfide conjugate of BBI (conjugate, UniProt P01055 40-110, looked up)
Bowman-Birk type proteinase …: DDESSKPCCDQCACTKSNPPQCRCSDMRLNSCHSACKSCICALSYPAQCFCVDITDFCYEPCKPSEDDKEN
modifications: palmityl disulfide; 125I
notes: the palmityl disulfide conjugate of BBI
Blood levels and removal from circulation [1]: accumulated in the blood at a relatively high level | Kidney accumulation [1]: BBIssPal was not | Kidney clearance, fold lower than native-BBI [1]: about 4 fold | Liver accumulation, fold higher than BBI [1]: approximately 5 fold | Lung accumulation/levels, fold higher than BBI [1]: approximately 2 fold | Retention in the liver [1]: remained high in the liver even at 24 hr post-injection | Plating Efficiency (C3H 10T1/2 cells): 23 ± 3.0% | Retention of anti-transformation activity of BBI ([2]; 1.0 μg/ml): retained the original biological activity of BBI | Transformed foci ([2]; MCA 1 μg/ml 24 hr, conjugates 1.0 μg/ml first three weeks): one type II focus out of the 20 dishes | Fraction of dishes containing transformed foci [2, 3]: 0.05 | No. of dishes with transformed foci/No. of dishes [2, 3]: 1/20
